The values below are quoted from earlier work in patent publication US4183849A, “Therapeutic insulin preparation and a process for the production of a stable insulin preparation with protracted effect” (Nordisk Insulinlaboratorium, priority 1975, dated 1980).

The conditions of the data set: impurities of recrystallized insulin, stated as known.

As to proinsulin, the antigenicity entry is recorded as “highly antigenic”.
